# Experiments:
# [1] = target: GII.10 VLPs (human norovirus genotype GII.10); experiment: blocking of GII.10 VLP binding to pig gastric mucin (HBGA)
# [2] = target: recombinant HuNoV GI.1 P domain (Human Norovirus (HuNoV) GI.1); experiment: ELISA on recombinant HuNoV GI.1 P domain, Spirulina-expressed Ni-NTA purified protein, sample B1, not freeze-dried
# [3] = target: recombinant HuNoV GI.1 P domain (Human Norovirus (HuNoV) GI.1); experiment: ELISA on recombinant HuNoV GI.1 P domain, Spirulina-expressed Ni-NTA purified protein, sample B2, not freeze-dried
# [4] = target: recombinant HuNoV GI.1 P domain (Human Norovirus (HuNoV) GI.1); experiment: ELISA on recombinant HuNoV GI.1 P domain, Spirulina-expressed Ni-NTA purified protein after freeze-drying
# [5] = target: recombinant HuNoV GII.4 P domain (Human Norovirus (HuNoV) GII.4); experiment: ELISA on recombinant P domain
# [6] = target: recombinant HuNoV GII.10 P domain (Human Norovirus (HuNoV) GII.10); experiment: ELISA on recombinant P domain
# [7] = target: recombinant HuNoV GII.17 P domain (Human Norovirus (HuNoV) GII.17); experiment: ELISA on recombinant P domain
# [8] = target: recombinant HuNoV GII.3 P domain (Human Norovirus (HuNoV) GII.3); experiment: ELISA on recombinant P domain
binder,measurement,setting,value
SP828 (VHH) VHH: QVQLQESGGGLVQSGGSLRLSCAASRNINSMHVVGWYRQAPGNQRELVASITDDGSTDYVDSVKGRFTISRDIAENTVYLQMNSLNPEDTAVYYCKGTIVVFTTPMHYWGKGTQVTVSS,IC50 (read off the curve),[1],1 µg/mL
Nano94 (no chaperone partner) (VHH) VHH: QVQLQESGGGLVQAGGSLRLSCAASGRMFSINSMGWYRQAPGKERELVATISEAGTTTYADSVRGRFTIARDNAKNTVYLQMNSLNPEDTAVYYCNAYIQLDSTIWFRAYWGQGTQVTVSS,EC50,[2],21.2 nM
same,EC50,[3],17.1 nM
same,EC50,[4],25.9 nM
"Nano26-TxnA (VHH, not shown: large carriers) VHH: QVQLQESGGGLVQPGGSLRLSCTAPRIIFFMYDVGWYRQAPEKQRELVAQINSDVSTKYADSVKGRFTISRDNAKRTVYLQMNDLKPEDAAVYYCNVRRASADYWGQGTQVTVSS",EC50,[5],15.4 nM
same,EC50,[6],1.46 nM
same,EC50,[7],2.52 nM
same,EC50,[8],4.46 nM

# Source: US20210338751A1
